Literature values in patent US6303637A, “Heterocyclic potassium channel inhibitors” (Merck & Co., Inc., priority 1999, dated 2001).

Target: T1, Kv 1.3 channels (Homo sapiens, UniProt P22001)
T1 construct: expressed in transfected cells; host or cells: CHO cells
Settings: margatoxin used at saturating concentration to establish the efflux window; read-out: IC50 (blocker of Kv 1.3 channels)

T1 sequence (P22001 whole entry): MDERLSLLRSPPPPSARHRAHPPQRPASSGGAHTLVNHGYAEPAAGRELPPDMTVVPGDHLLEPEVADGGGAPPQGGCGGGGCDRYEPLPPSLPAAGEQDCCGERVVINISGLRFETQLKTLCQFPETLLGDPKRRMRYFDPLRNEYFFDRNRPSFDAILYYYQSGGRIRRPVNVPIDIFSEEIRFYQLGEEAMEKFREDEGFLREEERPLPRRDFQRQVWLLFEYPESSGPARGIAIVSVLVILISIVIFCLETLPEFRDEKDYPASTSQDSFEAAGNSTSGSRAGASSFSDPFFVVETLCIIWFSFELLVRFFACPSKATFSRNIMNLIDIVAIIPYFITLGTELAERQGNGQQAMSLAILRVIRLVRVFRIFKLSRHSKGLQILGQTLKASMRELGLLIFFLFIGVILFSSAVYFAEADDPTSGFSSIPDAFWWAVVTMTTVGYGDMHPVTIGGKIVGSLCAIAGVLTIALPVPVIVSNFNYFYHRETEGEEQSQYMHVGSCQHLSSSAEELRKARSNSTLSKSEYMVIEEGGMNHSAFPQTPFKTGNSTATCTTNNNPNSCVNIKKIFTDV

margatoxin (TIINVKCTSPKQCLPPCKAQFGQSAGAKCMNGKCKCYPH; UniProt P40755 1-39, looked up)
IC50: 0.1 nM
